Assay: soluble on expression in E. coli; label from the status in PepcDB or PDB records

Row | Sequence | soluble on expression in E. coli
1 | MGSDKIHHHHHHMGLASPWQVSISSFDAEKKRLDIHLDVAPGSTFCCPECGILKLQSFPWSGRDSGFTLLFEAMIMVMARSMAVKAIATIVGEHDTRIWRIVHHYVDQAREMEDYSAVTTVGVDEPSSKRGHNSVTLFADLARSKVLFATEGKDASTVERFRDDLVAHKGNPASVTECCSDMSPACISGIGSHFVNAHLSFDKFHVMQIINHAVDEVRRQEQQERPELKKSRYLWLKNQQNLKAKQRNRLEELSLAKLNLKTARADRMRLAFQECFNQPVTLAESFLKKWCFRAANSISPYPLETARSQDNDGWTHRASWAGI | not soluble
2 | MGSDKIHHHHHHMGTIWPDSLPQSKGAKYTLVADVIRKAIDTKELEVGVKLPPVRELAYKLGITPGTVARAYTILTDEGLLNAEVGRGTFVAPPKRPVLDDVWSRQLYLLDERDDDNVSLFSPRLADMGQVALIRECLQKVAQGDPAMFLNYPTRDAYAGVRQAVVDWMSDLSLGPLTADDIVLTHGGQSGLCVVFQTVFKGPKPVVLVEDLSYAGFRRAAELMRADVIGVRMDKWGIDPMSLDLTARQSPAQAICVSPEVQNPTGSRSPLERRKEVVEVARKHDLQIIEDDCYRMGEPQAPSYRALAPERGWHVSSVSKTLTPALRVGFAIAPEGQSAGLRRSAEYGYFGLAQPLAELTRLMLSDPRARDLARAVQRRMAEYVRVTVNTLGGFDLVWDSAVPFVWLRLPSGWRSAAFTRAAERAGVQVRSADEFALRDGRAPNAVRIAMNAHVSLERFETAMVRLRALLDNPPEQISV | not soluble
3 | MGSDKIHHHHHHMGVMKTPGVYIVEKNAFPNSVVEVATAVPAFIGFTQKAINGNKSLLNKPWRITSMAEFRRYYGEAPEPEFEIAEKPADSLEDAAIVMGDKSYVISQSNTKYLLYYSMMLFFQNGGGPCYIVSVGNYTNDVEAAKLLAGIPTLLKEQEPTMLAIPEAILLAEDDCISVQQASLAHCGGVMRNRVAILDVWNGHLDRQDPSGDCIESFRSKLGINYLDFSSAYYPWLHTTIVQDSDLSFKNIANTDVLIGLLKEEVTASFTDLDGLTDDQLASPSNKLRVAKRDQMLTEVDSLATVAGDAQIVLLNKTLSSMSPLYMSILLDIKGKLNLLPPSACMAGIYTMVDNARGVWKAPANVSLNAVVSPAVNISHDEQEDLNVTTQGKSINAIRTFIGEGTLVWGARTLDGNSLDWRYISVRRTMIMLEESIRLAAKAYVFEPNTANTWTTLNSMITNFLTGIWKRGGLAGSVPADAFSVSVGLGSTMTSEDILEGILRITVLVAVTRPAEFIEITFQQQMQKS | not soluble
4 | MGSDKIHHHHHHMGVTGNNYTKIFHRMYWDGTPTPTQLAQELSKHGLAITGISLWQLYNGTLQFPIYVATERQLKSTQWVTFHRRKQLRCCPAGVFSVEYPVLAITNLSDAQAIETLEGAYAKAQGAKFAAEHARQYVPQRNRELLRRAVVGVDSPPEKLLITALREQGIDCHANVLVGDYRWDIQLDRHRVLIEVDGFEFHRFKPENQDAFVRDRWKTNDATLRGYLCLHYAARSVYRHTAVIVDQVQAAIRVAPARGYPFDASAMWHRGCWKWS | not soluble
5 | MGSDKIHHHHHHMGVVRTDKWLKRYVVQWPKAQVAGEKFELQQKLIISLLKDAFHTDHLDELQQQLLGQGLFLPTDDIELSYRALQDRAIWHLVHKQYTELREKWKGPNVPIYLFPVNTANPTIREQLGMKMGVSYRDKIVLFIGEMTSDQDVQALVTHEYHHCCRLTQLKLYEGTMTLLESMVMEGLAEKAVAEEVGRDALAIWTSRYDKADLHSLWALLLEQRMMKGRDRHYPYLFGGVGGIPEWAGYYLGYRIVDQAMKNDPTLTTTSMMKMEAEAILQRSFSAKRGRAVAVRGREISRDHS | not soluble
6 | MGSDKIHHHHHHMHARSLDKKPLDRQASIDSALRTVATEQAGIAALAEALENGLAAPFAQAVDMISKIEGRLIVTGVGKSGHIGSKIAATLASTGTPAFFVHPVEANHGDLGMIAKDDAIIAISWSGESKEMLGIVAYSRRFSIPLIAVTSGETSALARAADVVLLLPRTPEACPHGLAPTTSTLLQLVIGDALAIALLEARGFTPDHFRTFHPGGQLGANLTMVSEIMRVGDQMPLAVLGTKMPEAVMTLSQKKVGCVLIVDANGELAGIITDGDVARNLHRNLADVIVDEVMTRTPKTVDPQTLAGTAIALLNEHNIGALVVTRNNMPLGVVHFHDLLRIGAA | not soluble
7 | MGSDKIHHHHHHMHCGIDYGTSNSSLGIVKDGKVVQAELERNSVYLPSAIYRAFPEHELNDDIASRSIRQQLGSAQGLLYGSEAIEAYVRHPGDGLFMKSPKVFLGSDLSKDQMDFFQIVIAKMMTHILERAREFYGQELRQAVIGRPIRYHGIRGEEGDKQALAIMEHAAAGAGLEEVVFMYEPLAAALDYEQCLDRDEVLLVVDVGGGTTDCSVVKVGPSYRDKRERSDDLLAYSGNRIGGVDLDINLGWHTIMPLFGRGTDELHNKAFDAITVNSIPSQQAFYSRFEMPVHAQADTVRERLYRVWLDKLSSHLVRSAELAKIELSRRTSHVLELGYVEDGLEVHVSREDFRQAIARSAEKIRQVIDDARQASASRPDKIYLTGGSAVSPVIQQVIREVVGDAVPFVSGNMHGSVACGLSVFANRHFA | not soluble
8 | MGSDKIHHHHHHMHFDIKDLKLFLAISEEGSITRGAEKTYMSAASGSVRIRNLEQSINLRLLYRSSKGITLSSAGETFKHHASLIVNQMEMLRSDMQEHVKGIKGHVRIFSSITAIAEYLPPLLSHFLTLYNDVNIDLREYPSPEIVRSVIEGKTDLGIVAGNITTDNLEILPFRTDRLVLITATDHPFADRKSVTFHELIQYEQISLPEGTGMFEFIRKKAELVPSKLKIRIQVGNFETFCRMVEAKVGIGIMPHSAASRLRQLHEFSIIDLDEFWSLRKLQICARSFDKLPGFTQKLVTMLTAQTE | not soluble
9 | MGSDKIHHHHHHMHIRKYDHDYSRRFFMEQAAKGIATAGVLGPLWPMIANSADITKAYPDELMSIDAWSKGKIKTGDFITAENVEIVKELLDPVAYHHIKTMGRKIRIVPTTRDITRMFPAEYLEATLRNQGKAKLDANSNVVSSDGKPWIGGNPFPDAKTGLEVAANLTMCWGRKDNSLTAIRDWEVAPDGSMSYQYDFAWVEQNTTARADGKVLPGGDELLRYNAVYFTGPSDVKGTSYLNTWYYDQRKFPELVGYLPAFKRVRKFPTNQRFEPLVPGMNLYLSDAWAAGDPMLTWGNYKIVGRGPMLGAQSQTWYGDRPNWERPVQGGPKNQTFFETQMELCPDVVIFEAEPTGYPRAPVGKKRVWVDVRNQMYVAYITYDRRGEIFKSFEPQYSFLEKGDKKLMDGKSTAWHWTAVQCYNFQDGRMTRFQPVTSIAGGMSTAFNIDGLYEKYMTQQALQRMGT | not soluble
10 | MGSDKIHHHHHHMHLAAEQMNLSQPAVSKMLKEIEGLLGFQVFERLPRNMPVTALGEHVIRYAQRVLNDAKHFVEDIEILRLGGHGFLKVGGIFAATAVVIPNSIIEIKKQWPLLSIDVVEQTSDHLMEMLSEHTLDLAIGRFTDVTQSQFFDFQPLGPEPFCIVVNNAHPCAQKKFCTLEELLKWPWVLYPKGTPIRERMEGAFARAKVKIPLNTVNTMSMQTFLQILKGAPMVGMLPEAMVIDQVKEGQLQILETDLILDAQDYGILTRKDEPVSDIAAAFINILLKNAKRK | not soluble
11 | MGSDKIHHHHHHMHLDLLICSKPFIFNKVVDTKPFYQRTIMYKHTVSQHVFTFDSLTELMAKASPLRSGDQLAGIAAGSYQERIAAQMALADLPLTTFLQEPLIPYESDEVTRLIFDTHEHTAFTAIAHLTVGDFRNFLLSNNTHTSQLTALQKAITPEMAAAVSKIMNVQDLILVSSKCEIITRFRNTIGVKGCMSTRLQPNHPTDDLKAIMASVLDGLFYGSGDAVIGINPATDHISTQVQLLKLIDAVREQYAIPTQSCILSHITNTILAIEQGAPVDLVFQSIGGTEKTNSSFGINLSLLQEGYEAALSLGRGTIGNNVMYFETGQGSSLSANAHYGIDQQTLEARAYAVARAFNPLLVNTVVGFIGPEYLFDGKQIIRAGLEDHFCGKLMGLPMGCDICYTNHADADQDDMDALLTLLGVAGCNFIMGVPGSDDIMLNYQSTSFHDALYIRKLLNVKPAPEFEEWLLKMGIMNTQHEITVHRIYCG | not soluble
12 | MGSDKIHHHHHHMHQFLRAIGFSDITKKQLNEVINNIIDKPEKLKVTKDFEGNEFAELSCDVAPNMGITVRGIYNDDDSFDIDYYYPYFTGSEKTTNEIIDIEKHSEKESYAGVCDDPNLGVTLIFYLQNVCDYLSEKAYINREVRAKGAVLSGLSVDGCILLPMKQKKAKTLNTVDSDKKDRKQLIAEARDGDESAMESLTMEDIDLYSSITRRIQNEDILSIVTTYFMPYGIESDQYSVLGDIIELTEEKNIITNEKIYCIKVSCNDIIFSVCINKNDLIGEPMVGRRFKGNIWMQGSICL | not soluble
13 | MGSDKIHHHHHHMHTELNHVMPWRIEDIDLTRIDRQKAVANEDLLLLLCASSFIESGSDLYTANLSTFFNGDPEVSAWLNQEWEPEELQHGRALKTYIAYVWPEFDWDTAFRNFMEEYSLTCSVEDFEKTRALEMVARCVVETGTATLYRAIGECSDEPVLKQITDNIRTDEVRHYKHFFKYFKKYNKIEGNGRLAVLGALMRRVMEIKNEDSEIALRHVFAVRYPERVHDSAYNRERAARINALVRRNLSADMCVKMLLKPLDLPARIQPGVHYPLAKITQHVFFR | not soluble
14 | MGSDKIHHHHHHMHVEDYMNETPACLLAMLTQTREDLWQAAKALTERGVTRIILTGSGTSYHGALTARSFMQQWCGLPVDVYWPFLLDDSALTLSDKALVIGISQGGGSLSTLAAMERARAAGHLTASMAGEAPAVIDRAADLVLTVPCGEERAGAKTKGYHCTILNLMLLGLAVASRQRRLSDEERKALLIRMDTTFNHLPTLIEASQAWVLNHARPLIDSADIRLTGPARLFGTVQEGALKMLETLRCPVAGYEFEEFIHGIYNAFDERSTLIMLDPFPDERQDRLAEILGGWTQHIYRIGPQVENNGKNMPFAFINDPDFAVFEYIIPLQMVCARLPPVKGIDPAIPKDPQFHQKMKSKQLN | not soluble
15 | MGSDKIHHHHHHMICEFSESVLDGIADALVDRGYICVDNLFEPEVVVRLRDKVFTKADETFKPASIGRGQEQHRNTDIRRDSIRWLEPQCAVDNQYLSLMESLKNGLNRRLFMGLFDYESHYALYRPGAFYKKHVDALKGSQNRILTTVFFMNPEWQPDHGGVLKLYEEDDSLIEELAPLMGRLVIFLSERFPHEVMPTTVDRASIAGWFRVAGSQHGF | not soluble
16 | MGSDKIHHHHHHMIDEHHIDALTKLLGDKGVVTRREDMEAYEAGARYDRGRAAAVLRPVTTEEVSAAVGYCVRSGIALIPQSGNTGLVSGSTPDESGSEVVVSLDRLTRQFALDLDNRSVRVDAGFRLSELNRRLEEHGLFFPIDLGADPRIGGMIATNTGGSRFLKYGDVRRNTLGLKVVLADEAGTVLDLGSDLRKNNTGVDWKQIFIGTSGAFGIVTECVLNLERLPKQTATAFLVPASGAHVLPLLKAMEERLGAYLSAFEGMSRNAIAAAFAHVPALKNPFQGGKVPDYVILAEISRTSSPREGEQPLDAVLESVLAEIWEMEEVLLADALVGPPHEIWALRHALSEGVKHLGKLIAFDLSFRRGDIMAFCDHMKTEMPEKFPGVTVCDFGHIGDGGVHFNLVVAKDSPLLADATFEQRLREWVFAVAVEQYHGSFSAEHALGRRNQAFYDLYTPEKLKNMAAGLKTLTSPGKLGSVRFG | not soluble

— the DeepSol protein solubility set
